Source: the supplement of paper PMC10724198
± gives the standard deviation of the averaged measurements.

system: Saccharomyces cerevisiae; assay: protein stability index of tFT-peptide fusion (C-terminal peptide) (PSI (0-1 scale)); higher = more stable (slower turnover); conditions: genetic background: wild type; temperature: 30 C
Procedure: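 Multiplexed protein stability (MPS) profiling in S. cerevisiae. Random 12-aa peptides (tFT-X12 library) are fused to the C-terminus of a sfGFP-mCherry tandem fluorescent timer, after mCherry and a GGGS linker. Cells are FACS-sorted into 8 mCherry/sfGFP bins and deep-sequenced. The protein stability index (PSI) is the read-weighted bin average, scaled from 0 (unstable) to 1 (stable). Only peptides with >10 reads are reported; cells were grown at 30 °C in SC-His with glucose.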
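Further: PSI is a weighted mean of sequencing reads over stability bins, variants kept only with over 10 reads, mCherry proximal and sfGFP distal, peptide attached via GGGS linker.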

Sequence	protein stability index
ARRAAPRRPPSD	0.689 ± 0.047
ARRGAGGGHKGD	0.673 ± 0.038
ARRPAESHGTTI	0.716 ± 0.012
ARRSAGGAAVPG	0.624 ± 0.0098
ARSHSPPPPRPP	0.6723 ± 0.0029
ARSRPSILSGPE	0.689 ± 0.062
ARVAPPWRSTRA	0.683 ± 0.049
ASATCQKGSIPR	0.677 ± 0.036
ASCPLHFTDIRP	0.679 ± 0.018
ASEGRWVSVMGG	0.686 ± 0.05
ASFFTARMYIIF	0.676 ± 0.031
ASFPPPPAAPPP	0.673 ± 0.093
ASGGLVGAWVCV	0.675 ± 0.0091
ASGSSVSFQVSF	0.65 ± 0.069
ASIFPTLKLTYL	0.713 ± 0.011
ASLHAPPLPPLC	0.689 ± 0.02
ASLLGSSPPPFI	0.696 ± 0.072
ASLTNERCGASR	0.679 ± 0.019
ASLVSPSFLGLV	0.677 ± 0.084
ASNRVLRILLPR	0.683 ± 0.05
ASQPNRIPSPPR	0.71 ± 0.01
ASRFSLPLLSLL	0.71 ± 0.14
ASRHGALIVLST	0.6701 ± 0.0053
ASRPPAPVPLPL	0.686 ± 0.015
ASRRSGSYTGYR	0.672 ± 0.035

Sequence	protein stability index
ASSFVGLRWWAG	0.722 ± 0.012
ASSPAPPSPTPP	0.7 ± 0.05
ASSPPPRISAWL	0.7463 ± 0.0032
ASSRPQRKSGKR	0.77 ± 0.0086
ASSRQCSVEART	0.695 ± 0.0082
ASTFADASSALV	0.71 ± 0.014
ASTLPTQPWPKG	0.729 ± 0.11
ASVCASCYTGGF	0.665 ± 0.03
ATALETWGGAQG	0.691 ± 0.015
ATGLPSPALLHT	0.687 ± 0.043
ATLGRCYSSNGL	0.672 ± 0.031
ATPPPVRPSPIL	0.677 ± 0.035
ATPTSPSRPFLL	0.707 ± 0.086
ATTVAIVFCRPA	0.6165 ± 0.0039
AVAERGRPPLKE	0.6893 ± 0.0059
AVAHLSCTSRFG	0.6944 ± 0.0037
AVCCKYFGESLF	0.864 ± 0.0098
AVCWDVSRCLGL	0.7 ± 0.019
AVCWWGSVGGVG	0.6966 ± 0.0069
AVGGWRAAGGGG	0.7114 ± 0.0042
AVHASTLCSSIG	0.6659 ± 0.0043
AVLGDGCGVVGA	0.691 ± 0.072
AVNLWSRFFDLP	0.686 ± 0.052
AVRGYGCGGGTG	0.6971 ± 0.0012
AVSHGLFALPFL	0.703 ± 0.012

Sequence	protein stability index
AVTRLQPVMRAV	0.6804 ± 0.0054
AVVGCGGGWWWA	0.715 ± 0.13
AVVVWGGGWWWA	0.78 ± 0.15
AVWGWAFASVGG	0.735 ± 0.04
AWESVGVWWGDS	0.76 ± 0.043
AWGELGSGVFGL	0.681 ± 0.032
AWGRWGGGSRVE	0.636 ± 0.02
AWGYFTDTRERY	0.687 ± 0.036
AWQGRVEGGDGA	0.665 ± 0.024
AYCRRPALPWRG	0.714 ± 0.028
AYEGVYAVVANV	0.616 ± 0.014
AYICLSGLGRCI	0.672 ± 0.03
AYPWWLILSDAI	0.759 ± 0.016
AYWWSLGRALGC	0.745 ± 0.065
CALWHLLPVNLH	0.645 ± 0.059
CAPPSSPCLCSI	0.701 ± 0.064
CASLATAPPTSQ	0.728 ± 0.026
CAWLCVRFAGVG	0.668 ± 0.062
CCGHGVFSFFSL	0.749 ± 0.023
CCLASVSADKVV	0.703 ± 0.025
CCLGCFLKHGIV	0.652 ± 0.035
CCSIVRSGAGDK	0.748 ± 0.012
CCSSCFVLSKAA	0.6463 ± 0.0031
CDCDESYFNPLG	0.666 ± 0.037
CDLISNFFLIGV	0.633 ± 0.03

Sequence	protein stability index
CDSVATFCLRLF	0.6234 ± 0.0031
CEHGGWYVGFCS	0.7 ± 0.008
CERIGIRHLIKW	0.657 ± 0.036
CFCSWFWDLVLC	0.628 ± 0.0076
CFDALLPEELSS	0.696 ± 0.044
CFLPLFFFRFVE	0.609 ± 0.027
CFVDHCPIAHIY	0.608 ± 0.022
CGCCTSSPFVSQ	0.687 ± 0.061
CGGDGRTPTTHT	0.665 ± 0.019
CGGGCVVGAGWG	0.727 ± 0.044
CGLMIFSRSYRF	0.704 ± 0.033
CGMIQDKCEGEI	0.738 ± 0.049
CGRITADKRILL	0.65 ± 0.098
CGRRGYIVRTFL	0.658 ± 0.071
CGSWVAVESLEL	0.679 ± 0.042
CGVGEGGLLGWL	0.745 ± 0.072
CGVGWGMVEGWR	0.691 ± 0.016
CGWFSVGLMVGG	0.485 ± 0.057
CHSLEDRPDDPC	0.758 ± 0.1
CIGVGTVRGSHG	0.673 ± 0.067
CIKQTNNQNKSN	0.697 ± 0.045
CILYTGYDLGNV	0.7 ± 0.021
CIPVTGLHFRVI	0.6136 ± 0.0035
CITKERVMVKFV	0.538 ± 0.012
CITRIGSYGEET	0.679 ± 0.057

Sequence	protein stability index
CLCHAPLPLAAP	0.642 ± 0.013
CLFLRLSPSCSR	0.686 ± 0.04
CLGCAFPPHSLY	0.646 ± 0.046
CLGGPAAWPLFS	0.6778 ± 0.0025
CLLAPSSLASPI	0.66 ± 0.043
CLLFSRQLLESP	0.678 ± 0.077
CLLPFCFLSHIF	0.585 ± 0.04
CLLRPTPRPATP	0.779 ± 0.036
CLLYPPYHFYIH	0.567 ± 0.0066
CLMGTIETRLRC	0.637 ± 0.049
CLPQCLNPDFAE	0.645 ± 0.0066
CLRGGGAGDGAS	0.673 ± 0.048
CLRGTYPRLPLT	0.6838 ± 0.0035
CLRRRSLSPLFI	0.7252 ± 0.0057
CLSFCFGISVFD	0.616 ± 0.017
CLSSVSLSNVSV	0.669 ± 0.068
CLVKSNVCVAPG	0.643 ± 0.12
CMRVHPGHPFPY	0.633 ± 0.06
CNEKVNRNGYKR	0.69 ± 0.064
CNIASTLEKTCP	0.7043 ± 0.0062
CNNRNKRMRKYI	0.669 ± 0.031
CPFLFSLFPHSF	0.6646 ± 0.0033
CPFTDPRRQQSV	0.646 ± 0.028
CPLGHLCVIRFG	0.59 ± 0.012
CPPSPSPPLPPL	0.712 ± 0.0085

Sequence	protein stability index
CPRLWGGRLLMR	0.5867 ± 0.003
CPRWHDCLACIE	0.665 ± 0.011
CPSLSALNHPLV	0.701 ± 0.021
CPYIFLLSLGNT	0.651 ± 0.017
CQLCTDPLIDLL	0.667 ± 0.03
CQNLVCRCCLWI	0.6423 ± 0.0059
CQRHGTKIHRRR	0.736 ± 0.053
CQTRTKAKKTQV	0.727 ± 0.0083
CQVDGTMLCSEC	0.652 ± 0.02
CQVVALYCFSLL	0.62 ± 0.068
CRAAAGMVVWHG	0.6835 ± 0.0056
CRATYVGTGGRG	0.656 ± 0.016
CRFRFGFNFSSF	0.581 ± 0.075
CRGVGGRTVING	0.692 ± 0.032
CRNSTKFAVLRE	0.654 ± 0.012
CRPVHVNLPFYF	0.5884 ± 0.00092
CRRCRIHSGIYD	0.672 ± 0.034
CRRLLIHTALRV	0.582 ± 0.015
CRRPPWRFSFPF	0.767 ± 0.021
CRSGSVGGIRGR	0.679 ± 0.011
CSFHPSSVSLYS	0.555 ± 0.027
